Columns and labels:
[1] = biological target: T1, NEURL peptide ALRRPSLRREADD (SEQ ID NO:105) (not fully specified)
T1 chain: ALRRPSLRREADD

[2] = biological target: T2, dag kinase zeta peptide RPQNTLKASKKKKRASFKRK (SEQ ID NO:118) (not fully specified)
T2 chain: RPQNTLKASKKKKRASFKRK

[3] = biological target: T3, PARIS1 peptide EYLERRASRRRAV (SEQ ID NO:130) (not fully specified)
T3 chain: EYLERRASRRRAV

[4] = biological target: T4, splicing factor, arginine/serine-rich 4 peptide RSRSRSRSKSKDKRKSRKRS (SEQ ID NO:134) (not fully specified)
T4 chain: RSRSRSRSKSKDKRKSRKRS

[5] = biological target: T5, PLEC1 peptide KRERKTSSKSSVRKRR (SEQ ID NO:81) (not fully specified)
T5 chain: KRERKTSSKSSVRKRR

[6] = biological target: T6, MARCKS peptide PSPSNETPKKKKKRFSFKKS (SEQ ID NO:157) (not fully specified)
T6 chain: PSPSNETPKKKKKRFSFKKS

[7] = biological target: T7, MCM2 peptide VQRHRSMRKTFARYLSFRRD (SEQ ID NO:129) (not fully specified)
T7 chain: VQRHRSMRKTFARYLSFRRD

[8] = biological target: T8, … peptide KKPFKLSGLSFKRNRKE (SEQ ID NO:88) (not fully specified)
T8 chain: KKPFKLSGLSFKRNRKE

[9] = biological target: T9, titin peptide PFEVVWYKDKRQLRSSKKYK (SEQ ID NO:160) (not fully specified)
T9 chain: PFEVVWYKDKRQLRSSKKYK

[10] = biological target: T10, MARCKS peptide KKRFSFKKSFKLSGFSFKKN (SEQ ID NO:123) (not fully specified)
T10 chain: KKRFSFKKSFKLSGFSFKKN

[11] = biological target: T11, MacMARCKS peptide KKKFSFKKPFKLSGLSFKRN (SEQ ID NO:162) (not fully specified)
T11 chain: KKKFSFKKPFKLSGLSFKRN

[12] = biological target: T12, SMARCA5 peptide MAQIERGEARIQRRISIKKA (SEQ ID NO:166) (not fully specified)
T12 chain: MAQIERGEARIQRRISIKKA

[13] = biological target: T13, NCF1 peptide GAPPRRSSIRNAH (SEQ ID NO:101) (not fully specified)
T13 chain: GAPPRRSSIRNAH

[14] = biological target: T14, AF15q14 peptide GFLNEPLSSKSQRRKSLKLK (SEQ ID NO:132) (not fully specified)
T14 chain: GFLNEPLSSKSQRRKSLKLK

[15] = biological target: T15, MARCKS peptide KKKKKRFSFKKSFKL (SEQ ID NO:80) (not fully specified)
T15 chain: KKKKKRFSFKKSFKL

[16] = biological target: T16, PRKCA peptide RFARKGSLRQKNV (SEQ ID NO:85) (not fully specified)
T16 chain: RFARKGSLRQKNV

[17] = biological target: T17, PSCD2 peptide AARKKRISVKKKQEQ (SEQ ID NO:93) (not fully specified)
T17 chain: AARKKRISVKKKQEQ

[18] = biological target: T18, Myt1 kinase peptide PPRTPGWHQLQPRRVSFRGE (SEQ ID NO:163) (not fully specified)
T18 chain: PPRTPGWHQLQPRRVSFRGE

[19] = biological target: T19, CACNA1C peptide RGFLRSASLGRRASFHLE (SEQ ID NO:96) (not fully specified)
T19 chain: RGFLRSASLGRRASFHLE

[20] = biological target: T20, plectin peptide PLKEKKRERKTSSKSSVRKR (SEQ ID NO:125) (not fully specified)
T20 chain: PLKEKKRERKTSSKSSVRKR

[21] = biological target: T21, EBNA1BP2 peptide KRPGKKGSNKRPGKR (SEQ ID NO:112) (not fully specified)
T21 chain: KRPGKKGSNKRPGKR

[22] = biological target: T22, PARIS1 peptide RELEQLKAEYLERRASRRRA (SEQ ID NO:148) (not fully specified)
T22 chain: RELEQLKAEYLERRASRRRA

[23] = biological target: T23, slp4 peptide TYLLPDKSRQGKRKTSIKRD (SEQ ID NO:153) (not fully specified)
T23 chain: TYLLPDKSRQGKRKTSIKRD

[24] = biological target: T24, GABA A receptor beta 2 peptide ERHVAQKKSRLRRRASQLKI (SEQ ID NO:142) (not fully specified)
T24 chain: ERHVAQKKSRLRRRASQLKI

[25] = biological target: T25, MYBPC3 peptide LLKKRDSFRTPRDSKLE (SEQ ID NO:103) (not fully specified)
T25 chain: LLKKRDSFRTPRDSKLE

[26] = biological target: T26, MARCKS peptide KKRFSFKKSFKLSGFSFKKN (SEQ ID NO:119) (not fully specified)
T26 chain: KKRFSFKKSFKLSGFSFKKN

[27] = biological target: T27, NIK peptide WKGKRRSKARKKRK (SEQ ID NO:131) (not fully specified)
T27 chain: WKGKRRSKARKKRK

[28] = biological target: T28, ASIP peptide KKRSSKKEASMKKVVRP (SEQ ID NO:97) (not fully specified)
T28 chain: KKRSSKKEASMKKVVRP

[29] = biological target: T29, nuclear RNA export factor 3 peptide VRYTPYTISPYNRKGSFRKQ (SEQ ID NO:143) (not fully specified)
T29 chain: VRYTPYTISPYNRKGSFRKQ

[30] = biological target: T30, pkc-zeta peptide GLPAPGEDKSIYRRGSRRWR (SEQ ID NO:167) (not fully specified)
T30 chain: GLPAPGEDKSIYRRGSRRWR

B1: PKC-theta (protein)
chain: MSPFLRIGLSNFDCGSCQSCQGEAVNPYCAVLVKEYVESENGQMYIQKKPTMYPPWDSTFDAHINKGRVMQIIVKGKNVDLISETTVELYSLAERCRKNNGKTEIWLELKPQGRMLMNARYFLEMSDTKDMNEFETEGFFALHQRRGAIKQAKVHHVKCHEFTATFFPQPTFCSVCHEFVWGLNKQGYQCRQCNAAIHKKCIDKVIAKCTGSAINSRETMFHKERFKIDMPHRFKVYNYKSPTFCEHCGTLLWGLARQGLKCDACGMNVHHRCQTKVANLCGINQKLMAEALAMIESTQQARCLRDTEQIFREGPVEIGLPCSIKNEARPPCLPTPGKREPQGISWESPLDEVDKMCHLPEPELNKERPSLQIKLKIEDFILHKMLGKGSFGKVFLAEFKKTNQFFAIKALKKDVVLMDDDVECTMVEKRVLSLAWEHPFLTHMFCTFQTKENLFFVMEYLNGGDLMYHIQSCHKFDLSRATFYAAEIILGLQFLHSKGIVYRDLKLDNILLDKDGHIKIADFGMCKENMLGDAKTNTFCGTPDYIAPEILLGQKYNHSVDWWSFGVLLYEMLIGQSPFHGQDEEELFHSIRMDNPFYPRWLEKEAKDLLVKLFVREPEKRLGVRGDIRQHPLFREINWEELERKEIDPPFRPKVKSPFDCSNFDKEFLNEKPRLSFADRALINSMDQNMFRNFSFMNPGMERLIS
Work on B1 yielded an in vitro phosphorylation (% of best substrate) [1] of 21, an in vitro phosphorylation, 1 uM peptide (% of best substrate) [2] of 67 and an in vitro phosphorylation, 10 uM peptide (% of best substrate) [2] of 52. It also gave an in vitro phosphorylation, 1 uM peptide (% of best substrate) [3] of 38, an in vitro phosphorylation, 10 uM peptide (% of best substrate) [3] of 44 and an in vitro phosphorylation, 1 uM peptide (% of best substrate) [4] of 36. The in vitro phosphorylation, 10 uM peptide (% of best substrate) [4] was 16, the in vitro phosphorylation (% of best substrate) [5] was 46 and the in vitro phosphorylation, 1 uM peptide (% of best substrate) [6] was 20. The in vitro phosphorylation, 10 uM peptide (% of best substrate) [6] was 23, the in vitro phosphorylation, 1 uM peptide (% of best substrate) [7] was 48 and the in vitro phosphorylation, 10 uM peptide (% of best substrate) [7] was 25. For the same protein, the in vitro phosphorylation (% of best substrate) [8] was 38, the in vitro phosphorylation, 1 uM peptide (% of best substrate) [9] was 19 and the in vitro phosphorylation, 10 uM peptide (% of best substrate) [9] was 25. It also gave an in vitro phosphorylation, 1 uM peptide (% of best substrate) [10] of 47, an in vitro phosphorylation, 10 uM peptide (% of best substrate) [10] of 32 and an in vitro phosphorylation, 1 uM peptide (% of best substrate) [11] of 14. The in vitro phosphorylation, 10 uM peptide (% of best substrate) [11] was 13, the in vitro phosphorylation, 1 uM peptide (% of best substrate) [12] was 13 and the in vitro phosphorylation, 10 uM peptide (% of best substrate) [12] was 13. It also gave an in vitro phosphorylation (% of best substrate) [13] of 29, an in vitro phosphorylation, 1 uM peptide (% of best substrate) [14] of 34 and an in vitro phosphorylation, 10 uM peptide (% of best substrate) [14] of 40. It also gave an in vitro phosphorylation (% of best substrate) [15] of 63, an in vitro phosphorylation (% of best substrate) [16] of 46 and an in vitro phosphorylation (% of best substrate) [17] of 40. The in vitro phosphorylation, 1 uM peptide (% of best substrate) [18] was 14, the in vitro phosphorylation, 10 uM peptide (% of best substrate) [18] was 11 and the in vitro phosphorylation (% of best substrate) [19] was 21. It also gave an in vitro phosphorylation, 1 uM peptide (% of best substrate) [20] of 39, an in vitro phosphorylation, 10 uM peptide (% of best substrate) [20] of 100 and an in vitro phosphorylation (% of best substrate) [21] of 17. The in vitro phosphorylation, 1 uM peptide (% of best substrate) [22] was 34, the in vitro phosphorylation, 10 uM peptide (% of best substrate) [22] was 34 and the in vitro phosphorylation, 1 uM peptide (% of best substrate) [23] was 22. It also gave an in vitro phosphorylation, 10 uM peptide (% of best substrate) [23] of 18, an in vitro phosphorylation, 1 uM peptide (% of best substrate) [24] of 28 and an in vitro phosphorylation, 10 uM peptide (% of best substrate) [24] of 37. The in vitro phosphorylation (% of best substrate) [25] was 24, the in vitro phosphorylation, 1 uM peptide (% of best substrate) [26] was 69 and the in vitro phosphorylation, 10 uM peptide (% of best substrate) [26] was 28. It also gave an in vitro phosphorylation, 1 uM peptide (% of best substrate) [27] of 53, an in vitro phosphorylation, 10 uM peptide (% of best substrate) [27] of 35 and an in vitro phosphorylation (% of best substrate) [28] of 31. The in vitro phosphorylation, 1 uM peptide (% of best substrate) [29] was 25, the in vitro phosphorylation, 10 uM peptide (% of best substrate) [29] was 27 and the in vitro phosphorylation, 1 uM peptide (% of best substrate) [30] was 12. It also gave an in vitro phosphorylation, 10 uM peptide (% of best substrate) [30] of 14.

Reference: patent publication US20050064507
